The record followed here is EP4559937A1 (Universitat de Barcelona, dated 2025).

As usually defined, the Kd is the free concentration of one partner at which half of the binding sites on the other are occupied at equilibrium, for simple one-to-one binding.

To fix the notation:
B1: 142.9 murine anti-CD7 mAb (antibody, V domains shown)
VH: QVQLQQSGAELVRPGTSVKISCKASGYTFTNYWLGWVKQRPGHGLEWIGDFYPGSIYTNYNENFQGKATLTADTSSSTAYMQLSSLTSEDSAVYFCAREGDYYGSGHFDYWGQGTTLTVSS
VL: EILLTQSPAIIAASPGEKVTITCSARSSVSYMNWYQQKSGSSPKIWIYGISNLASGVPARFSGSGSGTSFSFTINSMEAEDVAYYYCQLRSSYSRTFGGGTKLEIK
notes: Murine monoclonal antibody, tested as hybridoma culture supernatant; also called CD7_142.9
B2: 142.24 murine anti-CD7 mAb (antibody, V domains shown)
VH: QLVQSGPEVKKPGETVKISCKASGYSFTHYGVNWVKQAPGKGLKWMGWINTNTGKPTYAEDFKGRFAFSLETSARTAYLQINNLKNEDTATYFCARWSTTVVAPYFDVWGAGTTVTVSS
VL: DILLTQSPAILSVSPGERVSFSCRASQNIGTSIHWFQQRSNGSPSLLIKYASESMSGIPSRFSGSGSGTDFTLSINSVEPEDIADYYCQQSNRWPYTFGGGTKLEIK
notes: Murine monoclonal antibody, tested as hybridoma culture supernatant; also called CD7_142.24
B3: 124.1D1 murine anti-CD7 mAb (antibody, V domains shown)
VH: DVQLQESGPGLVKPSQSLSLTCTVTGYSITSDYAWNWIRQFPGNKLEWLGYISYSGSTSYNPSLKSRISITRDTSKNQFFLQLNSVTTEDTATYYCAKSQLGRWAMDYWGQGTSVTVSS
VL: DILLTQSPAILSVSPGERVSFSCRASQSIGTSIHWYQQRTNDSPRLLIKYASESISGIPSRFSGSGSGTDFTLNINSVESEDIADYYCQQSISWPLTFGPGTKLELK
notes: Murine monoclonal antibody, tested as hybridoma culture supernatant; also called CD7_124.1D1

The test has as its target T1, Recombinant CD7 protein (ACRO biosystems, Cat No CD-H52H7), labeled with Alexa Fluor 647 (UniProt P09564 26-180, limits assumed, Alexa Fluor 647 NHS Ester label, sites not stated).
T1 construct: Bought protein; also called fluorescently labelled CD7; Alexa Fluor 647-labeled CD7
T1 sequence (looked up): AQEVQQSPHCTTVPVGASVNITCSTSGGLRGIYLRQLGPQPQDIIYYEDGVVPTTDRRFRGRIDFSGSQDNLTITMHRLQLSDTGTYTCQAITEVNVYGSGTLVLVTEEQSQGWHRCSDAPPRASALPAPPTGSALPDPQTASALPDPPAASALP
Nature of the test: microfluidic antibody-affinity profiling (MAAP), Fluidity One-W, hybridoma supernatant with Alexa Fluor 647-labelled CD7, Bayesian inference.
As to B1, the dissociation constant Kd amounted to 52.4 nM.

For B2, the Kd worked out at 22.4 nM.

Take B3: the dissociation constant Kd turned out to be 13.6 nM.
